Numbering of substitutions follows the chain as printed.
Assays:
GNYTDRRFI = target: T1, GNYTDRRFI
T1 chain: GNYTDRRFI

GNYTDRYFI = target: T2, GNYTDRYFI
T2 chain: GNYTDRYFI

[1] = target: T3, GDDDDKIYV (positive control test peptide)
T3 chain: GDDDDKIYV

DINDDRSLF = target: T4, DINDDRSLF
T4 chain: DINDDRSLF

GNYTDRMFI = target: T5, GNYTDRMFI
T5 chain: GNYTDRMFI

GDDDDK-β-naphthylamine = target: T6, GDDDDK-β-naphthylamine
T6 chain: GDDDDK

[2] = target: 17 isolates from rounds 2-5 of screening exhibiting the Asp-Arg motif before the scissile bond (P2-P1)
[3] = target: T7, … (negative control test peptide)
T7 chain: AVLSNVMFI

[4] = target: T8, phage isolate 5-H04 display polypeptide
T8 chain: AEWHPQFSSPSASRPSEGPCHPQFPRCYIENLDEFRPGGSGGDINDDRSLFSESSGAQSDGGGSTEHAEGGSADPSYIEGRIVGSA

[5] = target: T9, phage isolate 5-H11 display polypeptide
T9 chain: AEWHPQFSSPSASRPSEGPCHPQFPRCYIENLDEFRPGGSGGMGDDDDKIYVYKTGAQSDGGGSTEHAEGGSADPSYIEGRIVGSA

[6] = target: T10, phage isolate 5-B05 display polypeptide
T10 chain: T8 chain with D43S, I44L, N45D, S49T, L50V, F51S, S52P, E53K, S54F, S55W

[7] = target: T11, phage isolate 5-A08 display polypeptide
T11 chain: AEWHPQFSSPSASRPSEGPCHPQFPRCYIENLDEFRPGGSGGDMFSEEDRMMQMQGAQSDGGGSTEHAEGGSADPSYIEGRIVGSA

NKAKDRMFI = target: T12, NKAKDRMFI
T12 chain: NKAKDRMFI

B1: recombinant light chain enterokinase (Novagen, Madison, Wis.) (protein)
chain: IVGGSDSREGAWPWVVALYFDDQQVCGASLVSRDWLVSAAHCVYGRNMEPSKWKAVLGLHMASNLTSPQIETRLIDQIVINPHYNKRRKNNDIAMMHLEMKVNYTDYIQPICLPEENQVFPPGRICSIAGWGALIYQGSTADVLQEADVPLLSNEKCQQQMPEYNITENMVCAGYEAGGVDSCQGDSGGPLMCQENNRWLLAGVTSFGYQCALPNRPGVYARVPRFTEWIQSFLH
Work on B1 yielded a Cleavage Rate (GNYTDRRFI) of 0.18 nmol/min, a rate relative to standard substrate (GNYTDRRFI) of 0.4 and a Cleavage Rate (GNYTDRYFI) of 0.24 nmol/min. For the same protein, the rate relative to standard substrate (GNYTDRYFI) was 0.5, the Cleavage Rate [1] was 0.34 nmol/min and the rate relative to standard substrate [1] was 0.7. The ratio (Va/Vb) against reference peptide GDDDDK-βNA (relative kcat/Km) [1] was 1, the Cleavage Rate (DINDDRSLF) was 1.43 nmol/min and the rate relative to standard substrate (DINDDRSLF) was 3.1. The ratio (Va/Vb) against reference peptide GDDDDK-βNA (relative kcat/Km) (DINDDRSLF) was 30, the Cleavage Rate (GNYTDRMFI) was 0.81 nmol/min and the rate relative to standard substrate (GNYTDRMFI) was 1.8. The ratio (Va/Vb) against reference peptide GDDDDK-βNA (relative kcat/Km) (GNYTDRMFI) was 3.5, the Cleavage Rate (GDDDDK-β-naphthylamine) was 0.46 nmol/min and the rate relative to standard substrate (GDDDDK-β-naphthylamine) was 1. The “cleavage at 300 nM enterokinase (phage ELISA)” value [2] was “All of the phage isolates were readily cleaved when the enterokinase concentration was raised to 300 nM”, the “enterokinase cleavage (HPLC, mass spectroscopy)” value [3] was “No cleavage occurred with the negative control peptide (SEQ ID NO:198)” and the “enterokinase cleavage rate (phage ELISA, release from streptavidin)” value (from here on “enterokinase cleavage rate”) [4] was “isolate 5-H04 (SEQ ID NO:188) shown in Table 5 was the most readily cut”. For the same protein, the “enterokinase cleavage rate” value [5] was “the cleavage rate for the (Asp)4-Lys-containing recognition sequence 5-H11 (SEQ ID NO:194) was slower than for at least three of the other isolates”, the “enterokinase cleavage rate” value [6] was “the cleavage rate for ... 5-H11 (SEQ ID NO:194) was slower than for at least three of the other isolates, i.e., 5-A08 (SEQ ID NO:137), 5-B05 (SEQ ID NO:145) and 5-H04 (SEQ ID NO:188)” and the “enterokinase cleavage rate” value [7] was “the cleavage rate for ... 5-H11 (SEQ ID NO:194) was slower than for at least three of the other isolates, i.e., 5-A08 (SEQ ID NO:137), 5-B05 (SEQ ID NO:145) and 5-H04 (SEQ ID NO:188)”. It also gave a Cleavage Rate (NKAKDRMFI) of 0.26 nmol/min and a rate relative to standard substrate (NKAKDRMFI) of 0.6.

Source: patent publication US20020192789
